According to the RNAGym collection of RNA variant scans (doi:10.1073/pnas.2313332121):
Variants at the floor of the assay were thinned out.

B1: TPR 5TU (parent)
chain: GGAUCUUCUCGAUCUAACAAAAAAGACAAAUCUGCCACAAAGCUUGAGAGCAUCUUCGGAUGCAGAGGCGGCAGCCUUCGGUGGCGCGAUAGCGCCAACGUUCUCAACUAUGACACGCAAAACGCGUGCUCCGUUGAAUGGAGUUUAUCAUG

Variants of: B1
Assay: polymerase ribozyme fitness, log enrichment relative to wild type (log ratio); higher = more active; in vitro selection for triplet polymerase activity
Method in brief: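 One round of in vitro selection, in triplicate, was applied to PCR-built, transcribed mutant libraries of each subunit of a heterodimeric triplet polymerase ribozyme. The steps were annealing with a biotinylated primer, partner subunit and triplets, incubation frozen at −7 °C, gel excision of extended constructs, streptavidin-bead capture and RT-PCR. Fitness is the logarithm, base 2, of genotype enrichment over wild-type enrichment from inverse-variance-weighted replicate averages of Illumina-sequenced inputs and outputs, keeping genotypes with ≥10 input reads and ≥1 read per output.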

Row | Variant | polymerase ribozyme fitness (log ratio)
1 | GGAUCUUCUCGAUCUAACAAAAAAGAGAAAUCUGCCACAAAGCUUGAGGGCCUCUUCGGAUGCAGAGGCGGCAGCCUUCGGGGGCGCGAUGGCGCCAACGUUCUCAACUAUGACACGCAAAACGCGUGCUCCGUUGAAUGGAGUUUAUCAUG [C27G A49G A52C U82G A91G] | ≤ -4.2
2 | GGAUCUUCUCGAUCUAACAAAAAAGAGAAAUCUGCCACAAAGCUUAAGAGCAUCUUCGGAUGCCGAGGCGGCAGCCGUCGGUGGCGCUAUAGCGCCAACGUUCUCAACUAUGACACGCAAUACGCGUGCUCCGUUGAAUGGAGUUUAUCAUG [C27G G46A A64C U77G G88U A121U] | ≤ -4.2
3 | GGAUCUUCUCGAUCUAACAAAAAAGAAAAAUCUGCCACAAAGCAUGAGAGCAUCUUCGGAAGCAGAGGCGGCAGCCUUCGGUGGCGCGAUAGCGUCAACGUUCUCAACUAUGACACCCAAUACGCGUGGUCCGUUGAAUGGAGUUUAUCAUG [C27A U44A U61A C95U G117C A121U C129G] | ≤ -4.2
4 | GGAUCUUCUCGAUCUAACAAAAAAGAGAAAUCUGCCAAAAAGCUUGAGAGCAUCUUCGGAUGCAGAGGCGGCAGCCUUCGGUGGAGGGAUAGCGCCAACGUUCUCAACUAUGACACGCAAAACGCAUGCUCCGUUGGAUGGAGUUUAUCAUG [C27G C38A C85A C87G G126A A137G] | ≤ -4.2
5 | GGAUCUUCUCGAUCUAACAAAAAAGAGAAAUCUGCCACAAAGCUUGAGAGCAUCUUCGGAUGCAGAGGCGGCAGCCUUCGGUGGCGCGAUAGCGCUAACGUUCUCAACUAUGACACGCAAAACGCGUGCUCCGUUGAAUGGAGUUUAUCAUG [C27G C96U] | -3.97
6 | GGAUCUUCUCGAUCUAACAAAAAAGAAAAAUCUACCACAAAGCUUGAGAACAUCUUCGGAUGCUGAGGCGGCAGCCUACGGUGGCGCGAUAGCUCCAACGUUCUCUACUAUGACACGCAAAACGCCUGCUCCGUUGAAUGGAGUUUAGCAUG [C27A G34A G50A A64U U78A G94U A106U G126C U148G] | ≤ -4.2
7 | GGAUCUUCUCGAUCUAACAAAAAAGAGUAAUCUGCCACAAAGCUUGAGAGCAUCUUCGGAUGCAGAGGCGGCAGCCUUCGCUGGCGCGAUAGCGCCAACGUUCUCAACUAUGACACGCAAAACGCGUGCUCCGUUGAAUGAAGUUUAUCAUG [C27G A28U G81C G141A] | ≤ -4.2
8 | GGAUCUUCUCGAUCUAACAAAAAAGAGAAAUCUGCCACAAAGCUUGAGAGCAUCUUCGGAUGCAGAGGCGGCAGCCUUCGGUGGCGCGAUAGCGUCAACGUUCUCAACUAUGACACGCAAAACGCGUGCUCCGUUGAAUGGAGUUUAUCAUG [C27G C95U] | -3.51
9 | GGAUCUUCUCGAUCUAACAAAAAAGAGAAAUCUGCCACAAUGCUUGAGAGCAUCUUCGGAUGCAGAGGCGGCAGCCUUCGGUGGCGUGAUAGCGCCAACGUUCUCAACUAUGACACGCAAAACGCGUGCUCCGUUGAAUGGAGUUUAUCCUG [C27G A41U C87U A150C] | -3.92
10 | GGAUCUUCUCGAUCUAACAAAAAAGAGAAAUCUGCCAAAAAACUUGAGAGCAUCUUCGGAUACAGAGACGGCAGCCUUCGGUGGCGCGAUAGCGCCAACGUUCUCAACUAUGACACGCAAACCGCGUACUCCGUUGAAUGGAGUUGAUCAUG [C27G C38A G42A G62A G68A A122C G128A U146G] | -4.01
11 | GGAUCUUCUCGAUCUAACAAAAAAGAAAAAUCUGCCACAAAGCUUGAGAGCAUCUUCGGAUACAGAGGCGGCAGCCUUCGGUGGCGGGAUCGCGCCAACGUUCUCAACUAUGACACGCAAAACGCGUGCUCCGUUGAAUGGAGUUUAUCAUG [C27A G62A C87G A91C] | ≤ -4.2
12 | GGAUCUUCUCGAUCUAACAAAAAAGAAAAAUCUGCCACAAAGCUUGAGAGCAUCUUCGGAUGCAGAGGCGGCAGCCAUCGGUGGCGCGAUAGCACCAACGUUCUCAACUAUGAUACGCAAAACGCGUGCUCCGUUGAAUGGAGUUUAUCAUG [C27A U77A G94A C114U] | ≤ -4.2
13 | GGAUCUUCUCGAUCUAACAAAAAAGAGAAAUCUGCCACAAAGCUUGAGCGGAUCUUCGGAUGCAGAGGCGGCAGCCUUCGGUGUCGCGAUAGCGCCAGCGUUCUCAACUGUGACACGCAAAACGCGUGCUCCGUUGAAUGGAGUUUAUCAUG [C27G A49C C51G G84U A98G A110G] | ≤ -4.2
14 | GGAUCUUCUCGAUCUAACAAAAAAGAGAAAUCUGCCACAAAGCUUGAGAGCAUCUUCGGAUGCAGAGGCGGCAGCCUUCGGUGGUGCGAUUGCGCCAACGUUCUCAACAAUGACACGAAAAACGCGCGCUCCGUUGAAUGGAGUUUAUCAUG [C27G C85U A91U U109A C118A U127C] | ≤ -4.2
15 | GGAUCUUCUCGAUCUAACAAAAAAGAGUAAUCUGCCACAAAGCUUGAGAGCAUCGUCGGAAGCAGAGGCGGCAGCAUUCGGUGGCGCGAUAGCGCUAACGUUCUCAACUAUGACAGGCAAAACGCGUGCUCCCUUGAAUGGAGUUUAUCAUG [C27G A28U U55G U61A C76A C96U C116G G133C] | ≤ -4.2
16 | GGAUCUUCUCGAUCUAACAAAAAAGAGAAAUCUGCCACAAAGCUUGAGAGCGACUUCGGAUGCAGAGGCGGCAGCCUUCGGUGGCGCGAUAGCGCCAACAUUCUCAACUAUGACACGCAAAACGCGUGCUCCGUUGAAUGGAGUUUAUCAUG [C27G A52G U53A G100A] | ≤ -4.2
17 | GGAUCUUCUCGAUCUAACAAAAAAGAAAAAUCUGCCACAAAGCAAGAGAGCAUCUUCGGAUGCAGAGGCGGCAGCCUUCGGUGGCGCGAUAGGGCCAACGUUCUCAACUAUGACACGCAAAACGCGUGCUCCGUUGAAUGGAGUUUAUCAUG [C27A U44A U45A C93G] | -4.2
18 | GGAUCUUCUCGAUCUAACAAAAAAGAGAAAUCUGCCACAAAGCUUGAGAGCAUCUUCUGAUGCAGAGGCGGCAGCAUUCGGUGGCACGACAGCGCCAACGUUCUCUACUAUGACACGCAAAACGUGUGCUCCGUUCAAUGGAGUUUAUCAUG [C27G G58U C76A G86A U90C A106U C125U G136C] | ≤ -4.2
19 | GGAUCUUCUCGAUCUAACAAAAAAGAGAAAUAUGCCACAAAGCUUGAGAGCAUCUUCGGAUGCAGAGGCGGCAGCCUUCGGUGGCGCGAUAGUGCUAACGUUCUCAACUAUGACACGCAAAACGCGUGCUCCGUUGAAUGGAGUUUAUCAUG [C27G C32A C93U C96U] | -4.06
